Experimental data as given in the supplement of paper PMC10065799, “High-throughput profiling of sequence recognition by tyrosine kinases and SH2 domains using bacterial peptide display” (eLife, 2023).

How the values were obtained:
FGFR1 = FGFR1 (UniProt P11362); assay: phosphorylation enrichment, bacterial display (enrichment ratio); higher = better substrate or ligand; peptides without Tyr show the background
FGFR3 = FGFR3 (UniProt P22607); assay: as above
EPHB1 = EPHB1 (UniProt P54762); assay: as above
Chain of EPHB1 (P54762 whole entry, looked up): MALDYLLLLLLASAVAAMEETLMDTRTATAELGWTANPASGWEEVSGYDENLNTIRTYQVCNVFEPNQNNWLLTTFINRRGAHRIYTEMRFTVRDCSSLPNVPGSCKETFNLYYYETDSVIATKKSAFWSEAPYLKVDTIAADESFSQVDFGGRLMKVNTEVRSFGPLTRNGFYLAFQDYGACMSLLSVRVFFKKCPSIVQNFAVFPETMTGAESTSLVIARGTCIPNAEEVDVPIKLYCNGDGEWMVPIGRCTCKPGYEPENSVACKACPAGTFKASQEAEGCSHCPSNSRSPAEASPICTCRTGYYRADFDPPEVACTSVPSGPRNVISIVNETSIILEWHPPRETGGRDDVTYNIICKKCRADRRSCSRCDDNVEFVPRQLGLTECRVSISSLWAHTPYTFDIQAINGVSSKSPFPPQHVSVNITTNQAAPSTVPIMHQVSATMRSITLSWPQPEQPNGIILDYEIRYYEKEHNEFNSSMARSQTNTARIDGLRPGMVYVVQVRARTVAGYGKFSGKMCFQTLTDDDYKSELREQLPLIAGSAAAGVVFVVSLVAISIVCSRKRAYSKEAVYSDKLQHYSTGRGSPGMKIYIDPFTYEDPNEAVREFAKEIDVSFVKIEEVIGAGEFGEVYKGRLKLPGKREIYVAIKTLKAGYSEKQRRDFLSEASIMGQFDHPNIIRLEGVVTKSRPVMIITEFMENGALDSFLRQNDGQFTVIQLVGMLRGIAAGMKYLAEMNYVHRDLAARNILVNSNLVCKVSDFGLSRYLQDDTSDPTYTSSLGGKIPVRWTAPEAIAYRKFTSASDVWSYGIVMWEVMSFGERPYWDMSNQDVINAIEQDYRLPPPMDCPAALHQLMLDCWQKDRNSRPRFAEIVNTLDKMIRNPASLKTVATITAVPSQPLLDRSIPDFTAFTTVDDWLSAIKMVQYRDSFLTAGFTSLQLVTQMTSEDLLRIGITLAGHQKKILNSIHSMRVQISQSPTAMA

c-Abl (mouse) = assay: as above
Fer (mouse) = assay: as above
MERTK = MERTK (UniProt Q12866); assay: as above
AncSZ = assay: as above
Hck = Hck (UniProt P08631); assay: as above
Chain of Hck (P08631 whole entry, looked up): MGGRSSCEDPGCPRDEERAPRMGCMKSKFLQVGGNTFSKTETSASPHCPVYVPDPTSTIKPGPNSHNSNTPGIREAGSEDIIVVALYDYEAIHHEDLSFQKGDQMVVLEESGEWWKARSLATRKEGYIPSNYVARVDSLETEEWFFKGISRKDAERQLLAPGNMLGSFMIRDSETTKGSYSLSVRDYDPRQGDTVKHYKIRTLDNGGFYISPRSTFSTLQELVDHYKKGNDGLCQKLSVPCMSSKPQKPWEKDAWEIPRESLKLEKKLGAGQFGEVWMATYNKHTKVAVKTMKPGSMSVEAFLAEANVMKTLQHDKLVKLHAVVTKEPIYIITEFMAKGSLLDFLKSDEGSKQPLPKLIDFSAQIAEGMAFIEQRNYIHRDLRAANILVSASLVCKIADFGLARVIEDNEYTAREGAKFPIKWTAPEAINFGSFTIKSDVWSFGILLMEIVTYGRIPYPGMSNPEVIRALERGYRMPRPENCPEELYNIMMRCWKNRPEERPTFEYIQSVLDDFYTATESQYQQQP

EPHB2 = EPHB2 (UniProt P29323); assay: as above
Chain of EPHB2 (P29323 whole entry, looked up): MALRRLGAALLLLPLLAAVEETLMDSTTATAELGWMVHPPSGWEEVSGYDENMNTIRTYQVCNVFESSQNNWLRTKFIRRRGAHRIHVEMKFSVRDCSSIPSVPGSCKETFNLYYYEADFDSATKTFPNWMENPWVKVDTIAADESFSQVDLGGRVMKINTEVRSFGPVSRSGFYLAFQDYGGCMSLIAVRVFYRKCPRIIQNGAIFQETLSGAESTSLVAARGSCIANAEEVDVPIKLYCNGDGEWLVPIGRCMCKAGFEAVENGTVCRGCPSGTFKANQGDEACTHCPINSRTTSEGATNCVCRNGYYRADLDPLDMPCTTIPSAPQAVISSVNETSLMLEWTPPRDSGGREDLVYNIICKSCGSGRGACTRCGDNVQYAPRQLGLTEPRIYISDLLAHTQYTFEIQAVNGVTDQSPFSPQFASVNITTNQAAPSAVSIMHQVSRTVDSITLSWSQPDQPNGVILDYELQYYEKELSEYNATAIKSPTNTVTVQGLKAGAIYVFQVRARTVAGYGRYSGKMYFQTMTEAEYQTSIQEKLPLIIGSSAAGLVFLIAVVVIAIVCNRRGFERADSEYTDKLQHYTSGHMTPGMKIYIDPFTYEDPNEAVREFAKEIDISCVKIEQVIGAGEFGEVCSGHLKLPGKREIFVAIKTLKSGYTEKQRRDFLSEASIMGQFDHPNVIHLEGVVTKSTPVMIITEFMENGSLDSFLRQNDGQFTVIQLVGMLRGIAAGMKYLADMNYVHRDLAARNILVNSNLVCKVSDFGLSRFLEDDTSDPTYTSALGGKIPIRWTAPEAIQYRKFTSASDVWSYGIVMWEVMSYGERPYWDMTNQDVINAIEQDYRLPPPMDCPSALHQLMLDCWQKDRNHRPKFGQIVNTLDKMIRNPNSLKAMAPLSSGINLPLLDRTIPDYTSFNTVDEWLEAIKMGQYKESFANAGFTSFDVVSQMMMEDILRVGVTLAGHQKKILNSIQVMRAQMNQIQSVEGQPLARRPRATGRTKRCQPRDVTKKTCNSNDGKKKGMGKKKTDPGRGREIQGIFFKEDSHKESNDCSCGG

Fyn = Fyn (UniProt P06241); assay: as above
Chain of Fyn (P06241 whole entry, looked up): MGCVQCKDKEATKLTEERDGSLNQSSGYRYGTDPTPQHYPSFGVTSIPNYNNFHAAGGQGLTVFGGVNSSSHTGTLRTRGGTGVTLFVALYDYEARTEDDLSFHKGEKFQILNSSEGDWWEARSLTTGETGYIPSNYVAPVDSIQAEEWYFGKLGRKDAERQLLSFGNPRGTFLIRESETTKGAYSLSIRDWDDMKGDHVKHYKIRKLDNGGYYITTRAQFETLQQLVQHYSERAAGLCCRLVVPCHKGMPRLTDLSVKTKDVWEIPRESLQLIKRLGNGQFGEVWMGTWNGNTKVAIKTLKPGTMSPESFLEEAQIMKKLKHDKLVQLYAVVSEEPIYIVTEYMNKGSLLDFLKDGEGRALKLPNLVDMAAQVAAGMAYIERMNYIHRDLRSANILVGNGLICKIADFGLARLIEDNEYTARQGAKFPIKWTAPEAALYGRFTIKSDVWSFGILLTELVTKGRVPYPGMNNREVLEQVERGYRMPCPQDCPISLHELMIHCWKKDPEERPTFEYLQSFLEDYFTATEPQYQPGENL

c-Src = assay: as above
Jak2 = Jak2 (UniProt O60674); assay: as above
Fes = Fes (UniProt P07332); assay: as above
Chain of Fes (P07332 whole entry, looked up): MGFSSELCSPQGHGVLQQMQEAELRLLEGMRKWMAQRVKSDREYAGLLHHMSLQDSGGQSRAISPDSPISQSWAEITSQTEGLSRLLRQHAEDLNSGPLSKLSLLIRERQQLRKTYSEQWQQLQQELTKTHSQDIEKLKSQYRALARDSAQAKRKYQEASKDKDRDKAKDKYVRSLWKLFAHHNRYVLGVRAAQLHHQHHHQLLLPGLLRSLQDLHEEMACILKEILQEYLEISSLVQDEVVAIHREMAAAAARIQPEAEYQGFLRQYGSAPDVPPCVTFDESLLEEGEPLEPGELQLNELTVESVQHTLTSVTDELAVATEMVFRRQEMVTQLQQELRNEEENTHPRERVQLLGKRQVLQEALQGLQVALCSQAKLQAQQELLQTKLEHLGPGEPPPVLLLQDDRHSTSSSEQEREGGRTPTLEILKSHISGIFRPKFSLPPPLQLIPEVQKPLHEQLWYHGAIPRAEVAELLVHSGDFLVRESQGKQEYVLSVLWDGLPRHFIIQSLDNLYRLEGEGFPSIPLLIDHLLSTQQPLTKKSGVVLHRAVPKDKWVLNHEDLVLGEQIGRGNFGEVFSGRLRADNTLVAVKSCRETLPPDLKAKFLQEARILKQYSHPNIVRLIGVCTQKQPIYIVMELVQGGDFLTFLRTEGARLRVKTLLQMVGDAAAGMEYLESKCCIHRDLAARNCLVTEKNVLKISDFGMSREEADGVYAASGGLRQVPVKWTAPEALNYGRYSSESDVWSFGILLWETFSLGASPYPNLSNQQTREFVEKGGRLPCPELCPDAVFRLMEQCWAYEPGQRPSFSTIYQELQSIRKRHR

Grb2 SH2 = Grb2 SH2 (UniProt P62993); assay: SH2 binding enrichment of the phosphorylated peptide, bacterial display (enrichment ratio); higher = better substrate or ligand; peptides without Tyr show the background
c-Src SH2 = assay: as above
SHP2-C SH2 = assay: as above
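For SH2 binding enrichment of the phosphorylated peptide, bacterial display in this document: peptide library displayed on the E. coli surface as eCPX fusions, selected cells deep-sequenced, score is each peptide's frequency after selection divided by its frequency in the input.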
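For phosphorylation enrichment, bacterial display in this document: 11-residue human phosphosite peptides and single-mutation variants displayed on the E. coli surface, counted by deep sequencing, each peptide's frequency after selection divided by its frequency in the unselected input library; frequency after pTyr selection over input frequency; kinase dosed for 20-30% of maximal phosphorylation in three min.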

Chain of FGFR1 (P11362 whole entry, looked up): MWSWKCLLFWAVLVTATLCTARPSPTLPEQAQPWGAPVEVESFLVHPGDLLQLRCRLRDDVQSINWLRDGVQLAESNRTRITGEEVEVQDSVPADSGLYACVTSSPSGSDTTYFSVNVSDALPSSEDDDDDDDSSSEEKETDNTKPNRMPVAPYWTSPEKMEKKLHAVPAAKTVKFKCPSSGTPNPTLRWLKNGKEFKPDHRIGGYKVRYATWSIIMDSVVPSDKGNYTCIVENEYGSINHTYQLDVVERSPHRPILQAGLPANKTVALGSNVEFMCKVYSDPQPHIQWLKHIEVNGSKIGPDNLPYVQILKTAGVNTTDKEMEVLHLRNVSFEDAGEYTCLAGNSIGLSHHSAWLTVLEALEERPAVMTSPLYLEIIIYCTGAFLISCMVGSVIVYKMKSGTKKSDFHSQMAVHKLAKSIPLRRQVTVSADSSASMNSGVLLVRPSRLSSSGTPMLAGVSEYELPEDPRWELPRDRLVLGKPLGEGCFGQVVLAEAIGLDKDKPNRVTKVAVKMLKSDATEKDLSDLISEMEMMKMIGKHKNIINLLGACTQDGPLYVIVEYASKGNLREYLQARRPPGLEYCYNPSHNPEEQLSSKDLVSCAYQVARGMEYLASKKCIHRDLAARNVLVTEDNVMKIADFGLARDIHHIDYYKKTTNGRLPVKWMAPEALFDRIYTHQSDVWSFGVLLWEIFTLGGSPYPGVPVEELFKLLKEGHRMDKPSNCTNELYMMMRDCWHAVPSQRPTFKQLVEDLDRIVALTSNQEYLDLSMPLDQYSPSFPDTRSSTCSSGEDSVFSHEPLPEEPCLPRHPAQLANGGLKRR

SH2 binding enrichment (Grb2 SH2) | SH2 binding enrichment (c-Src SH2) | SH2 binding enrichment (SHP2-C SH2) | Sequence | phosphorylation enrichment (FGFR1) | phosphorylation enrichment (FGFR3) | phosphorylation enrichment (EPHB1) | phosphorylation enrichment (c-Abl (mouse)) | phosphorylation enrichment (Fer (mouse)) | phosphorylation enrichment (MERTK) | phosphorylation enrichment (AncSZ) | phosphorylation enrichment (Hck) | phosphorylation enrichment (EPHB2) | phosphorylation enrichment (Fyn) | phosphorylation enrichment (c-Src) | phosphorylation enrichment (Jak2) | phosphorylation enrichment (Fes)
0.881 | 0.467 | 0.631 | EKQLLYLENKT [FRK_Y132_S133L] | 0.398 | 0.589 | 0.567 | 0.41 | 0.405 | 0.337 | 0.712 | 0.459 | 0.44 | 0.467 | 0.356 | 0.672 | 0.985
1.49 | 0.984 | 1.28 | RHPLEYLRQFP [NARS2_Y138_YF] | 0.369 | 0.365 | 0.372 | 0.554 | 0.275 | 0.33 | 0.605 | 1.38 | 0.494 | 0.342 | 0.409 | 0.66 | 0.612
0.731 | 0.516 | 0.777 | AAVDTYCRHNY [HLA-DRB1_Y107] | 0.451 | 0.571 | 0.507 | 0.755 | 0.442 | 0.479 | 0.871 | 0.531 | 0.527 | 0.548 | 0.461 | 0.911 | 0.914
1 | 0.773 | 0.701 | LDLSFYHTSSS [EMD_Y182_P183H_YF] | 0.575 | 0.903 | 0.845 | 0.644 | 0.423 | 0.414 | 1.21 | 0.575 | 0.676 | 0.553 | 0.879 | 1.04 | 1.19
0.807 | 0.508 | 0.581 | EVNQDYGLDPK [FH_Y110] | 0.572 | 0.837 | 0.631 | 0.765 | 0.519 | 0.443 | 1.31 | 0.596 | 0.546 | 0.604 | 0.466 | 1.17 | 1.29
0.742 | 0.514 | 1.19 | HQPGEYLFHAE [FLT3_Y416_I417L] | 0.628 | 0.691 | 0.527 | 1.21 | 0.554 | 0.617 | 1.09 | 0.756 | 0.724 | 0.481 | 0.879 | 1.29 | 1.13
0.881 | 0.482 | 1.01 | KLVQLYVVCTK [BTK_Y461_G462V] | 0.565 | 0.785 | 0.809 | 0.928 | 0.584 | 0.45 | 1.3 | 0.528 | 0.523 | 0.416 | 0.486 | 1.2 | 1.16
1.03 | 0.585 | 0.855 | KSEMSCIDGEK [SORBS1_Y485_Y485C] | 0.522 | 0.686 | 0.491 | 0.793 | 0.44 | 0.406 | 0.862 | 0.447 | 0.567 | 0.431 | 0.423 | 0.658 | 1.06
0.647 | 0.599 | 0.811 | FSQQTYFPVSN [ABCD1_Y180_R182P_YF] | 4.99 | 3.8 | 0.946 | 0.723 | 0.494 | 3.42 | 1.1 | 2.5 | 0.908 | 0.889 | 1.95 | 5.51 | 1.01
0.851 | 0.579 | 0.859 | DSIRDYEDGME [CLNS1A_Y214] | 0.628 | 0.729 | 0.749 | 0.844 | 0.49 | 0.599 | 1.29 | 0.612 | 0.784 | 0.647 | 0.521 | 1.66 | 1.26
1.06 | 0.638 | 0.64 | GKVFVYHGSSL [ITGA7_Y458_I457V] | 0.514 | 0.676 | 0.564 | 0.563 | 0.476 | 0.435 | 1.03 | 0.434 | 0.523 | 0.449 | 0.349 | 0.674 | 1.06
1.17 | 1.09 | 1.24 | CFCSWYRGWAP [TIMP3_Y195_G190C_YF] | 1.07 | 1.03 | 0.859 | 0.933 | 4.11 | 0.556 | 1.28 | 0.887 | 0.707 | 0.647 | 4.5 | 1.25 | 1.44
1.11 | 0.698 | 0.797 | WGLCSYFETSK [MAGED2_Y448_R446C_YF] | 0.768 | 0.847 | 0.671 | 0.926 | 0.62 | 0.403 | 1.29 | 0.523 | 0.633 | 0.423 | 0.698 | 1.34 | 1.55
1.55 | 1.27 | 1.39 | TQRPHYKGGGG [TYROBP_Y112_Y111H] | 0.45 | 0.76 | 0.349 | 0.97 | 0.565 | 0.433 | 0.558 | 0.535 | 0.587 | 0.496 | 0.454 | 0.676 | 0.686
0.87 | 0.941 | 0.707 | YRDMDYRSYPR [RBM10_Y41] | 2.3 | 1.37 | 0.477 | 0.607 | 0.415 | 0.519 | 0.64 | 0.4 | 0.475 | 0.402 | 0.547 | 0.55 | 0.895

Sequence | SH2 binding enrichment (Grb2 SH2) | SH2 binding enrichment (c-Src SH2) | SH2 binding enrichment (SHP2-C SH2) | phosphorylation enrichment (FGFR1) | phosphorylation enrichment (FGFR3) | phosphorylation enrichment (EPHB1) | phosphorylation enrichment (c-Abl (mouse)) | phosphorylation enrichment (Fer (mouse)) | phosphorylation enrichment (MERTK) | phosphorylation enrichment (AncSZ) | phosphorylation enrichment (Hck) | phosphorylation enrichment (EPHB2) | phosphorylation enrichment (Fyn) | phosphorylation enrichment (c-Src) | phosphorylation enrichment (Jak2) | phosphorylation enrichment (Fes)
LSVEIYDRREY [ITGB7_Y753] | 0.602 | 0.523 | 0.437 | 0.618 | 0.869 | 0.669 | 0.801 | 0.587 | 0.581 | 1.52 | 2.23 | 0.816 | 0.675 | 0.765 | 0.965 | 1.4
